Test results reported in patent US20130209454A1.

Assays:
Assay in all cases: cell-based or functional assay
[1] = biological target: Env of HIV-1 strain WEAU_d15_410_787 (HIV-1)
[2] = biological target: Env of HIV-1 strain 1054_07_TC4_1499 (HIV-1)
[3] = biological target: HIV-1 Env of strain WEAU_d15_410_787 (HIV-1)
[4] = biological target: Env of HIV-1 strain Ce0682_E4 (HIV-1)
[5] = biological target: Env of HIV-1 strain 191955_A11 (HIV-1)
[6] = biological target: Env of HIV-1 strain CAP45.2.00.G3 (HIV-1)
[7] = biological target: Env of HIV-1 strain T255-34 (HIV-1)
[8] = biological target: HIV-1 Env of strain ZM233M.PB6 (HIV-1)
[9] = biological target: Env of HIV-1 strain ZM247v1(Rev-) (HIV-1)
[10] = biological target: HIV-1 Env of strain A07412M1.vrc12 (HIV-1)
[11] = biological target: Env of HIV-1 strain 6811.v7.c18 (HIV-1)
[12] = biological target: Env of HIV-1 strain 1056_10_TA11_1826 (HIV-1)
[13] = biological target: HIV-1 Env of strain 3415.v1.c1 (HIV-1)
[14] = biological target: Env of HIV-1 strain Ce1086_B2 (HIV-1)
[15] = biological target: HIV-1 Env of strain C2101.c01 (HIV-1)
[16] = biological target: Env of HIV-1 strain 6244_13_B5_4576 (HIV-1)
[17] = biological target: HIV-1 Env of strain Ce704809221_1B3 (HIV-1)
[18] = biological target: Env of HIV-1 strain 1012_11_TC21_3257 (HIV-1)
[19] = biological target: Env of HIV-1 strain C4118.c09 (HIV-1)
[20] = biological target: HIV-1 Env of strain ZM197M.PB7 (HIV-1)
[21] = biological target: Env of HIV-1 strain A07412M1.vrc12 (HIV-1)
[22] = biological target: Env of HIV-1 strain CNE58 (HIV-1)
[23] = biological target: Env of HIV-1 strain 191084 B7-19 (HIV-1)
[24] = biological target: Env of HIV-1 strain 7030102001E5(Rev-) (HIV-1)
[25] = biological target: Env of HIV-1 strain CNE19 (HIV-1)
[26] = biological target: HIV-1 Env of strain 3817.v2.c59 (HIV-1)
[27] = biological target: HIV-1 Env of strain 3301.v1.c24 (HIV-1)
[28] = biological target: HIV-1 Env of strain 620345.c01 (HIV-1)

NIH45-46 (antibody), sequence (VH): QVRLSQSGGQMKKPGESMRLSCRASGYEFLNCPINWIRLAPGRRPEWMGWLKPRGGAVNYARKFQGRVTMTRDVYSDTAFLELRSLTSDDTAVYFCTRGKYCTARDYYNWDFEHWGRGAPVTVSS
NIH45-46 (antibody), sequence (V domain): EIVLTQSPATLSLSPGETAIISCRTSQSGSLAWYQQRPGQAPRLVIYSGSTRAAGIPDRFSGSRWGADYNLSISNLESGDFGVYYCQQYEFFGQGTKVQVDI

Substance: NIH45-46 (antibody)
- IC80 [1]: 0.015 µg/mL
- IC80 [2]: 0.404 µg/mL
- IC50, pseudovirus neutralization [3]: 0.005 µg/mL
- IC80 [4]: 0.155 µg/mL
- IC80 [5]: 0.43 µg/mL
- IC80 [6]: > 50 µg/mL
- IC80 [7]: 3.44 µg/mL
- IC50, pseudovirus neutralization [8]: 2.5 µg/mL
- IC80 [9]: 24.5 µg/mL
- IC50, pseudovirus neutralization [10]: 0.03 µg/mL
- IC80 [11]: 0.113 µg/mL
- IC80 [12]: 0.447 µg/mL
- IC50, pseudovirus neutralization [13]: 0.022 µg/mL
- IC80 [14]: 0.28 µg/mL
- IC50, pseudovirus neutralization [15]: 4.24 µg/mL
- IC80 [16]: 0.26 µg/mL
- IC50, pseudovirus neutralization [17]: 0.15 µg/mL
- IC80 [18]: 0.04 µg/mL
- IC80 [19]: 0.91 µg/mL
- IC50, pseudovirus neutralization [20]: 0.15 µg/mL
- IC80 [21]: 0.13 µg/mL
- IC80 [22]: 2.08 µg/mL
- IC80 [23]: 0.07 µg/mL
- IC80 [24]: 0.63 µg/mL
- IC80 [25]: 0.37 µg/mL
- IC50, pseudovirus neutralization [26]: > 50 µg/mL
- IC50, pseudovirus neutralization [27]: 0.009 µg/mL
- IC50, pseudovirus neutralization [28]: > 50 µg/mL
